Experiments:
[1] = system: acute myocardial infarction / occluded coronary arteries; settings: cited from earlier work
[2] = system: platelet deposition in the Dacron graft; assay: Platelet deposition (thrombus formation) in Dacron graft, arterial thrombosis model, 111In-labeled platelets; format: in vivo, baboon; settings: 1 mg of t-PA (0.1 mg/kg/hour) infusion; previous studies, same model
Protocol: Permanent arteriovenous shunts were prepared between the femoral artery and vein using 3 mm i.d. Silastic tubing Subsequent interposition of 5 cm long, 4 mm i.d. Dacron vascular grafts served as thrombogenic surface, inducing continuous platelet-fibrinthrombus formation until progressive occlusion of the graft at 70±20 min.
All baboons underwent at least one control experiment prior to APC administration. The APC was given by injecting one-fourth to one-third of the total PC dose as a bolus and the remaining three-fourths to two-thirds of the dose as continuous infusion for one hour. The interposition of the graft and bolus injection were made at time=0 and APC was administered at the proximal site of the Silastic shunt. The experiments were divided into three groups; the "low dose" APC group received 2.0-3.4 mg (total), the "high dose" APC group received 11 mg (total), and the combination group received 2.1 mg APC plus 1.3 mg t-PA (total).
Platelet Deposition in the Dacron Graft
The deposition of ^III In-labeled Platelets was detected by scintillation camera images of the graft. […] Inhibition of platelet deposition in treated animals was expressed as % of total number of platelets deposited in the control experiments at 30 and 60 minutes timepoints.

B1: t-PA: t-PA from a melanoma cell line, provided by Dr. Desire Collen (Leuven, Belgium) (protein, UniProt P00750 36-562, looked up)
Tissue-type plasminogen …: SYQVICRDEKTQMIYQQHQSWLRPVLRSNRVEYCWCNSGRAQCHSVPVKSCSEPRCFNGGTCQQALYFSDFVCQCPEGFAGKCCEIDTRATCYEDQGISYRGTWSTAESGAECTNWNSSALAQKPYSGRRPDAIRLGLGNHNYCRNPDRDSKPWCYVFKAGKYSSEFCSTPACSEGNSDCYFGNGSAYRGTHSLTESGASCLPWNSMILIGKVYTAQNPSAQALGLGKHNYCRNPDGDAKPWCHVLKNRRLTWEYCDVPSCSTCGLRQYSQPQFRIKGGLFADIASHPWQAAIFAKHRRSPGERFLCGGILISSCWILSAAHCFQERFPPHHLTVILGRTYRVVPGEEEQKFEVEKYIVHKEFDDDTYDNDIALLQLKSDSSRCAQESSVVRTVCLPPADLQLPDWTECELSGYGKHEALSPFYSERLKEAHVRLYPSSRCTSQHLLNRTVTDNMLCAGDTRSGGPQANLHDACQGDSGGPLVCLNDGRMTLVGIISWGLGCGQKDVPGVYTKVTNYLDWIRDNMRP
- Patients with reocclusion after discontinuing t-PA infusion ([1]; after successful thrombolytic reperfusion, despite full-dose heparin therapy): between one-four and one-third of patients
- Thrombolysis in acute myocardial infarction (in words) ([1]; infusion into humans): effective thrombolysis
- Antiplatelet effect (in words, FIG. 8) [2]: intermediate antiplatelet effect

— patent US5084274A, “Inhibition of arterial thrombotic occlusion or thromboembolism” (Scripps Clinic and Research Foundation, priority 1987, dated 1992)
